From paper PMC4193804 come the findings set out here.

For assay [1], the target named is Hy.1B11 TCR with biotinylated C-terminal BirA tag (human). Put plainly: SPR. On the technique in general: Surface plasmon resonance follows binding to a sensor surface in real time, without labels.
In assay [2] the target is HLA-DQ1 (DQA1*0102, DQB1*0502) loaded with the myelin basic protein peptide (res. 85–99) (human). As to the kind of experiment: SPR.
In assay [3] the target is HLA-DQ1 (DQA1*0102, DQB1*0502), supplied as DQ1/CLIP for peptide-binding assays (human). As to the kind of experiment: ELISA. A general note: In an ELISA, binding on a coated surface is turned into a signal by an enzyme label.

In general, Kd refers to the free concentration of one partner at which half of the binding sites on the other are occupied at equilibrium, for simple one-to-one binding. Higher therefore signals lower affinity. For “HLA-DQ1 (DQA1*0102, DQB1*0502) loaded with the Pseudomonas aeruginosa phosphomannomutase peptide PMM 260–274 (from UniProt P26276 260-274) (peptide-MHC)”, the dissociation constant (Kd) in assay [1] was determined as 57.3 µM. This counts as double-digit micromolar.
“HLA-DQ1 (DQA1*0102, DQB1*0502) loaded with the myelin basic protein peptide (res. 85–99) (peptide-MHC)” yielded a dissociation constant Kd in assay [1] of 6.96 µM.
The substance “Hy.1B11 T cell receptor (TCR), wild type, soluble” yielded a dissociation constant (Kd) in assay [2] of 14.3 µM.
“MBP 85–99 analogue peptide with P6 Asn to Asp substitution”: the fold higher affinity than the WT MBP peptide in assay [3] turned out to be 10 fold.
